Laboratory results reported in patent US20220265772A1, “USES OF DAN FAMILY BMP ANTAGONISTS FOR INHIBITING OCULAR NEOVASCULARIZATION AND TREATING OCULAR CONDITIONS” (9636137 Canada Inc., priority 2019, published 2022).

Tests used:
[1] = tested on: geographic atrophy (GA); conditions: in vivo; cited from earlier work
[2] = tested on: Wnt signaling; test: Canonical Wnt signaling in HUVECs (immunoblotting, β-catenin immunofluorescence); format: cell-based, human
Protocol: FIG. 12 is a panel with a schematic, pictures showing that Dand5 reduces canonical Wnt signaling in HUVECs. HUVECs were plated to confluence and received a 2 h scratch in the presence or absence of Dand5 ([…]) or IWR1 (3 μM). β-catenin (green) localization was examined by immunofluorescence with phalloidin and DAPI (nuclei) to identify the cell boundaries and nucleus. […] Scale bars, […]).
Cells were washed with cold PBS and extracted in Laemmli's buffer, followed by sonication. Samples were run on SDS-PAGE gels and transferred onto nitrocellulose membranes. Membranes were blocked with 5% Bovine Serum Albumin (BSA) and probed with primary antibodies overnight at 4° C.: beta-Catenin (Cell Signaling Technology), phospho-beta-catenin (Cell Signaling Technology), Axin2 (Cell Signaling Technology), beta-Actin (Santa Cruz Technologies). HRP-conjugated secondary antibodies (Vector Laboratories) were used to detect primary antibodies.
We next evaluated the molecular mechanisms underlying the effects of DAND5 on endothelial cells. […] Wnt signaling regulates fundamental aspects of vascular development, including cell fate specification, proliferation and survival. […] HUVECs were treated for up to 24 hours with DAND5 or IWR-1, an inhibitor of Wnt canonical signaling. Protein extracts were harvested and subjected to immunoblotting against downstream effectors of Wnt signaling. […] The levels of β-catenin at different subcellular localizations are regulated by a variety of processes including site-specific phosphorylation of β-catenin. In the absence of an active Wnt signaling, β-catenin localization at cellular junctions is reduced and cytoplasmic β-catenin associates with the destruction complex (6).

[3] = tested on: HUVECs; test: Free radicals / ROS in HUVECs (DCFDA, MitoSoxRed); format: cell-based, human; conditions: HUVECs treated with DAND5 plus NAC
Protocol: FIG. 8 is a panel with graphs and pictures showing that Dand5 induces mitochondrial oxidative stress and alters ATP levels in HUVECs. FIG. 8A: HUVEC cells were treated with Dand5 in the presence or not of N-acetylcysteine (NAC) for up to 48 hours. Cells were then incubated with H2DCFDA. Hydrogen peroxide treated cells (H2O2) were included as a positive control. Fluorescence was measured at Ex: 485 nm and Em: 535 nm in a plate reader. Relative Fluorescence Units (RFU) were generated by normalizing the reading of each well to Hoescht staining (n=3,*p<0.05 **p<0.001). FIG. 8B: HUVEC cells were treated with Dand5 in for up to 48 hours. Cells were incubated with MitoSox Red. 3-nitro-proprionic acid (3-NP) treated cells were also examined as a positive control. Fluorescence was measured at Ex: 544 nm and Em: 590 nm. Relative Fluorescence Units (RFU) were generated by normalizing the reading of each well to Hoescht staining (n=3,*p<0.05). FIG. 8C: Primary culture of choroidal sprouts were treated with Dand5 in the absence or presence of NAC. FIG. 8D: Quantification of sprouting area by Image J. FIG. 8E: The ratio of NAD+ to NADH in whole cell extracts was determined using an Alcohol Dehydrogenase/Malate Dehydrogenase enzymatic cycling assay. Cells treated to hypoxic conditions (4% O2 for 3 hours) were included as a positive control (n=3,*p<0.05, **p<0.01). Likewise, glucose uptake was reduced in Dand5-treated HUVECs after 1 hour, while lactate levels were increased (lower panel). FIG. 8F: ATP levels were reduced in HUVECs exposed to Dand5 at 1, 6 and 24 hours (n=3,*p=0.05).
We exposed or not HUVECs to recombinant DAND5 and measured the concentration of free radicals using DCFDA and MitoSoxRed™. […] To further test this, we measure the NAD+/NADH ratio in cells treated or not with DAND5. […] Likewise, glucose uptake was reduced and lactate levels were increased in DAND5-treated HUVECs after 1 h (FIG. 8E, lower panel).

[4] = tested on: mouse choroidal explants; test: Choroidal explant sprouting in culture; format: cell-based; conditions: mouse choroidal explants, DAND5 plus NAC
Protocol: FIG. 1 is a panel with pictures, bar graphs, and graphs showing that Dand5 reduces VEGF-mediated sprouting angiogenesis in cultured endothelial cells. FIG. 1A: HUVECs grown in a fibrinogen gel were treated with VEGF to induce tube formation in the presence or absence of Dand5. […] FIG. 1B: HUVECs were plated to confluency and scratched to stimulate a wound in the presence or absence of Dand5. Scale bar, 100 μm. FIG. 1C: Quantification of tube formation in FIG. 1A n=3, *p<0.05, **p<0.01). FIG. 1E: Choroids were isolated from wild-type mice and cultured in vitro in the absence or presence of Dand5. […] FIG. 1F: Quantification of sprouting areas in choroidal sprouts (n=3, ***p<0.0001). […] FIG. 1H: HUVECs were cultured in the presence or absence of Dand5 and analyzed by immunofluorescence using antibodies against phospho-Histone 3 (PH3), a marker of cellular mitosis, and phalloidin and DAPI (nuclei). […] FIG. 1I: Quantification immunofluorescent staining of phospho-histone 3 positive cells. […] FIG. 1K: Quantification of immunofluorescent staining of cleaved caspase 3 (n=2, n.s.).
To evaluate the cellular mechanisms underlying the inhibitory effects of DAND5 on endothelial cells sprouting, we assessed the effects of DAND5 on endothelial cell migration and proliferation. […]
We exposed or not HUVECs to recombinant DAND5 and measured the concentration of free radicals using DCFDA and MitoSoxRed™. […]

[5] = tested on: Wnt-induced angiogenesis; test: Wnt1 and DAND5 co-injection during retinal vascular development (P1 to P5); format: in vivo, mouse
Protocol: FIG. 13 is a panel with pictures and graphs showing that Dand5 opposes Wnt1-mediated hypervascularization during retinal vascular development. FIG. 13A: Schematic representation of experimental design. C57B6 pups were injected at P1 with PBS, Dand5 (60 ng/mL), Wnt1, or Wnt1 and Dand5 together at various molar ratios (1N, 5N and 10N). FIG. 13B: Representative images of retinas treated with PBS, Dand5 (1N) or Wnt1 (1N). FIG. 13C: Representative images of retinas treated with PBS or with Wnt1 (5N and 10N) alone or in combination with Danb5. Dand5 Flatmounts retinas were stained with Isolectin B4 to visualize the vasculature. FIG. 13D: Quantification of vascular branches in treated eyes. […] To address the antagonism of DAND5 on Wnt-induced angiogenesis, retinas were injected with recombinant DAND5 (60 ng) with increasing concentrations of Wnt1 (0, 1, 5 or 10× molar ratio) at P1 and retinas were harvested at P5 (FIG. 13A).

[6] = HUVECs treated for up to 24 hours, immunoblotting

bevacizumab: VEGF inhibitor
risk of geographic atrophy (GA) progression [1]: increased risks of geographic atrophy (GA) progression

O=C(Nc1cccc2cccnc12)c1ccc(N2C(=O)[C@@H]3[C@H](C2=O)[C@@H]2C=C[C@H]3C2)cc1 [IWR-1, reference compound]
levels of Axin2 [2, 6]: increased levels of Axin2
levels of phosphorylated beta-catenin [2, 6]: increased levels of phosphorylated beta-catenin
levels of total beta-catenin [2, 6]: decreased levels of total beta-catenin
cytoplasmic β-catenin ([2]; confluent HUVECs, 2 h scratch, Dand5 60n/mL or IWR1 3 μM): increased cytoplasmic β-catenin

ranibizumab: VEGF inhibitor
risk of geographic atrophy (GA) progression [1]: increased risks of geographic atrophy (GA) progression

CC(=O)N[C@@H](CS)C(=O)O [NAC, N-acetyl cystein, reference compound]
reversal of DAND5-induced free radical elevation [3]: could be overcome by exposing cells to N-acetyl cystein (NAC)
growth of DAND5-treated choroidal explants when also treated with NAC [4]: partially rescued

B1: Wnt1: Wnt1 injected into mouse retinas, alone or with DAND5, at increasing molar ratios (protein, UniProt P04426 28-370, looked up)
Proto-oncogene Wnt-1: ANSSGRWWGIVNIASSTNLLTDSKSLQLVLEPSLQLLSRKQRRLIRQNPGILHSVSGGLQSAVRECKWQFRNRRWNCPTAPGPHLFGKIVNRGCRETAFIFAITSAGVTHSVARSCSEGSIESCTCDYRRRGPGGPDWHWGGCSDNIDFGRLFGREFVDSGEKGRDLRFLMNLHNNEAGRTTVFSEMRQECKCHGMSGSCTVRTCWMRLPTLRAVGDVLRDRFDGASRVLYGNRGSNRASRAELLRLEPEDPAHKPPSPHDLVYFEKSPNFCTYSGRLGTAGTAGRACNSSSPALDGCELLCCGRGHRTRTQRVTERCNCTFHWCCHVSCRNCTHTRVLHECL
retinal vascular density ([5]; Wnt1 injected at P1, retinas at P5, IsoB4 staining): retinal vascular density was increased
retinal vascularization at 16.6 and 33.3 pmoles ([5]; Wnt1 injections of 16.6 and 33.3 pmoles, P1 to P5): significant hypervascularization
rescue of the inhibitory effects of DAND5 on retinal angiogenesis ([5]; concomitant injection of DAND5 (60 ng) with Wnt1 (10 molar ratio)): partially rescued the inhibitory effects of DAND5 on retinal angiogenesis
mutual antagonism on vascular branches ([5]; quantification of vascular branches in treated eyes): mutually antagonist activities
